Results from the RNAGym collection of RNA variant scans (doi:10.1073/pnas.2313332121).
This sample holds only a part of the variants without activity.

B1: TPR 5TU (parent)
chain: GGAUCUUCUCGAUCUAACAAAAAAGACAAAUCUGCCACAAAGCUUGAGAGCAUCUUCGGAUGCAGAGGCGGCAGCCUUCGGUGGCGCGAUAGCGCCAACGUUCUCAACUAUGACACGCAAAACGCGUGCUCCGUUGAAUGGAGUUUAUCAUG

Variants of: B1
Experiment: polymerase ribozyme fitness, log enrichment relative to wild type (log ratio); higher = more active; in vitro selection for triplet polymerase activity
How it was run: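 Mutant libraries of both subunits of a heterodimeric triplet polymerase ribozyme were PCR-built, transcribed, and selected once in triplicate, with frozen incubation at −7 °C and capture of gel-excised extended constructs on streptavidin beads before RT-PCR. Illumina sequencing of input and output libraries was filtered to genotypes with ≥10 input reads and ≥1 read per output. Fitness is the logarithm of genotype enrichment over wild-type enrichment, using inverse-variance-weighted replicate averages. The logarithm is base 2.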

Q: For GGAUCUUCUCGAUCUAACAAAAAAGACAAAUCUGGCAAAAAGCUUGAGAGCAUCUUCGGAUGCAGAGGUGGCAGCCUUCGGUGUCGCGAUAGCGCCAACGUUCUCAACUAUGACACGCAAAACGCGUGCUCCGUUGAAUGGAGUUUAUCAUG [C35G C38A C69U G84U], which “polymerase ribozyme fitness (log ratio)” value is on record?
A: ≤ -4.2

Q: Which “polymerase ribozyme fitness (log ratio)” value does the source give for GGAUCUUCUCGAUCUAACAAAAAAGACAAAUCUGGCACAAAGCUUGAGAGCAUCUUCGGAUGCAGAGGCGGCAGCCUUCAGUGGCGCGAUUGCGCCAACGUUCUUAACUAUGACACGCAAAACGCGUGCUCCGUUGAAUGGAGUUUAUCAUG [C35G G80A A91U C105U] here?
A: ≤ -4.2

Q: For GGAUCUUCUCGAUCUAACAAAAAAGACAAAUCUGGCACAAUGCUUGAGAGCAUCUUCGGAUGCAGAGGCGGCAGCCUUCGGUGGCGCGAUAGCGCCAACGUUCUCAACUAUGACACGCAAAACGCGUGCUCCGUUUAAUGAAGUUUAUCAUG [C35G A41U G136U G141A], which “polymerase ribozyme fitness (log ratio)” value is on record?
A: ≤ -4.2

Q: For GGAUCUUCUCGAUCUAACAAAAAAGACAAAUCUGGCACAAAGCUUGAGAGCGUCUUCGGAUGCAGAGGCGGCAGCCUUCGGUGGCGCGAUAGCGCUAACGUUCUCAACUAUGACACGCAAAACGCGUGCUCCGUUGAAUUGAGUUUAUCAUG [C35G A52G C96U G140U], which “polymerase ribozyme fitness (log ratio)” value is on record?
A: -4.08

Q: For GGAUCUUCUCGAUCUAACAAAAAAGACAAAUCUGGCACAAAGCUUGAGAGCAUCUUCGGAUGCAGAGGCAGCAGCCUUCGGUGGCGGGAUAGCGCCAACGUUCUCAACCAUGACACGCAAAACGCGUGCUCCGUUGAAUGGAGUUUAUCAUG [C35G G70A C87G U109C], which “polymerase ribozyme fitness (log ratio)” value is on record?
A: ≤ -4.2

Q: With GGAUCUUCUCGAUCUAACAAAAAAGACAAAUCUGGCACAAAGCUCGAGAGCAUCUUCGGAUGCAGAUGCGGCAGCCUUCGGUCGCGCGAUAGCGCCAACGUUCUCAACUAUGACACGCAAAACGCGUGCUCCGUUGAAUGGAGUUUAUCAUG [C35G U45C G67U G83C] as the variant, how does the “polymerase ribozyme fitness (log ratio)” value read?
A: ≤ -4.2

Q: For GGAUCUUCUCGAUCUAACAAAAAAGACAAAUCUGGCACAUAGCUUGAGAGCAUCUUCGGAUGCAGAGGCGACAGCCUUCGGUGGCGUGAUAGCGCCAACGUUCUCAACUAUGACACGCAAAACGCGUGCUCCGUUUAAUGGAGUUUAGCAUG [C35G A40U G71A C87U G136U U148G], which “polymerase ribozyme fitness (log ratio)” value is on record?
A: ≤ -4.2

Q: Which “polymerase ribozyme fitness (log ratio)” value does the source give for GGAUCUUCUCGAUCUAACAAAAAAGACAAAUCUGGCACAAAGCUUGAUAGCAUCUUUGGAUGCAGAGGCGGCAGCCUUCGGUGGCGCGAUAGCGCCAACGUUCUCAACUUUGACAUGCAAAACGCGUGCUCCGUUGACUGGAGUUUAUCAUG [C35G G48U C57U A110U C116U A138C] here?
A: ≤ -4.2

Q: Which “polymerase ribozyme fitness (log ratio)” value does the source give for GGAUCUUCUCGAUCUAACAAAAAAGACAAAUCUGGCACAAAGCUUGAGAGCAUCUUCGGAUGCAGAGGCGGCAGCCUUCGGUGGCGCGAUAGCGCCAACGUUCUCAACUAUGACACGCAAAACGCUUGCUCCGUUGAAUGGAGUUUAUCAUG [C35G G126U] here?
A: -4.16

Q: For GGAUCUUCUCGAUCUAACAAAAAAGACAAAUCUGGCACAAAGCUUGAGAGCAUCUUUGGAUGCAGAGGCGGCAGCCUUCGGUGGCGCGAUAGCGCCAACGUUCUCAACUAUGACACGCAAAACGCGUGCUCCGUUGAAUGGAGUUUAUCAUG [C35G C57U], which “polymerase ribozyme fitness (log ratio)” value is on record?
A: ≤ -4.2

Q: Which “polymerase ribozyme fitness (log ratio)” value does the source give for GGAUCUUCUCGAUCUAACAAAAAAGACAAAUCUGGCACAAAGCUUGAGAGCAUCUUCGGAUGCAGAGGCGGCAGCCUUCGGUCGCGCGAUAGCGCCAACGUUCUCAACUAUGACACGCAAAACGCGUGCUCCGUUGAAUGGAGUUUAUCAUG [C35G G83C] here?
A: -4.19

Q: With GGAUCUUCUCGAUCUAACAAAAAAGACAAAUCUGGCACAAAGCUUGAGAGCAUCUUCGGAUGCAGAGGCGGCAGCGUUCGAGGGCGCGAUAGUGCCAACGUUCUCAACUAUGACACGCAAGACGCGUGCUCCGUUGAAUGGAGUUUAUCAUU [C35G C76G G81A U82G C93U A121G G152U] as the variant, how does the “polymerase ribozyme fitness (log ratio)” value read?
A: -3.58

Q: Which “polymerase ribozyme fitness (log ratio)” value does the source give for GGAUCUUCUCGAUCUAACAAAAAAGACAAAUCUGGCACAAAGCUUGAGAGCAUCUUCGGAUGCAGAGGCGGCAGCCUUCGGUGGCGCGAUAGCUCCUACGUUCUCAACUAUGACACGCAAAACGCGUGCUCCGUUGAAUGGAGUUUAUCAUG [C35G G94U A97U] here?
A: -4.17

Q: With GGAUCUUCUCGAUCUAACAAAAAAGACAAAUCUGGCACAAAGCUUGAGAGCAUCUUCGGAUGCAGAGGCGGCAGCCUUCGGUGGCGCGAUAGCGGCAACGUUCUCAACUAUGACACGCAAAACGCGUGCUCCGUUGAAUGGAGUUUAUCAUG [C35G C95G] as the variant, how does the “polymerase ribozyme fitness (log ratio)” value read?
A: -4.19

Q: Which “polymerase ribozyme fitness (log ratio)” value does the source give for GGAUCUUCUCGAUCUAACAAAAAAGACAAAUCUGGCACAAAGCUUGAGAGCAUCUUCGGAUGCAGAGGCGGCAGCCUUCGGUGGUGCGAUAGCGCCAACGUUCUCAACUAUGACACGCAAAACGCGUGCUCCGUUGAAUGGAGUUUAUCAUG [C35G C85U] here?
A: ≤ -4.2

Q: For GGAUCUUCUCGAUCUAACAAAAAAGACAAAUCUGGCACAAAGCUUGAGAGCAUGUUCGGAUGCAGAGGCGGCAGCCUUUGGUGGCGCGAUAGCGCCAACGUUCUCAACUAUGACACGCAAAACGCGAGCUCCGUUGAAUGGAGUUUAUCAUG [C35G C54G C79U U127A], which “polymerase ribozyme fitness (log ratio)” value is on record?
A: ≤ -4.2

Q: With GGAUCUUCUCGAUCUAACAAAAAAGACAAAUCUGGCACAAAGCUUGAGAGCAUCUUCGGAUGCAGAGGCGGCAGCGUUCGGUGGCGCGGUAGCGCCAACGUUCUCAACUAUGACACGCAAAACGCGUGCUCCGUUGAAUGGAGUUUAUCAUG [C35G C76G A89G] as the variant, how does the “polymerase ribozyme fitness (log ratio)” value read?
A: -3.96

Q: With GGAUCUUCUCGAUCUAACAAAAAAGACAAAUCUGGCACAAAGCUUGAAAGCAUCUUCUGAUGCAGAGGCGGCAGCCUUUGGUGGUGCGAUAGCGCCAACGUUCUCAACUAUGACACGCAAAACGCGUGCUCCGUUGAAUGGAGUUUAUCAUG [C35G G48A G58U C79U C85U] as the variant, how does the “polymerase ribozyme fitness (log ratio)” value read?
A: ≤ -4.2

Q: For GGAUCUUCUCGAUCUAACAAAAAAGACAAAUCUGGCACAAAGCUUGCGAGCAUCUUCGGAUGCAGACGCGGCAGCCUUCGGUGGCGCGAUCGCGCCAACGUUGUCAACUAUGACACGCAAAACGCGUGCUCCGUUGAAUGGAGUUUAUCAUG [C35G A47C G67C A91C C103G], which “polymerase ribozyme fitness (log ratio)” value is on record?
A: ≤ -4.2
